According to PMC11615309 (Nature Communications, 2024):

Biological target: T1, 6xHis-tagged FAT1 cadherin #28-33 (3024-3789 aa) (UniProt Q14517 3024-3789)
T1 sequence: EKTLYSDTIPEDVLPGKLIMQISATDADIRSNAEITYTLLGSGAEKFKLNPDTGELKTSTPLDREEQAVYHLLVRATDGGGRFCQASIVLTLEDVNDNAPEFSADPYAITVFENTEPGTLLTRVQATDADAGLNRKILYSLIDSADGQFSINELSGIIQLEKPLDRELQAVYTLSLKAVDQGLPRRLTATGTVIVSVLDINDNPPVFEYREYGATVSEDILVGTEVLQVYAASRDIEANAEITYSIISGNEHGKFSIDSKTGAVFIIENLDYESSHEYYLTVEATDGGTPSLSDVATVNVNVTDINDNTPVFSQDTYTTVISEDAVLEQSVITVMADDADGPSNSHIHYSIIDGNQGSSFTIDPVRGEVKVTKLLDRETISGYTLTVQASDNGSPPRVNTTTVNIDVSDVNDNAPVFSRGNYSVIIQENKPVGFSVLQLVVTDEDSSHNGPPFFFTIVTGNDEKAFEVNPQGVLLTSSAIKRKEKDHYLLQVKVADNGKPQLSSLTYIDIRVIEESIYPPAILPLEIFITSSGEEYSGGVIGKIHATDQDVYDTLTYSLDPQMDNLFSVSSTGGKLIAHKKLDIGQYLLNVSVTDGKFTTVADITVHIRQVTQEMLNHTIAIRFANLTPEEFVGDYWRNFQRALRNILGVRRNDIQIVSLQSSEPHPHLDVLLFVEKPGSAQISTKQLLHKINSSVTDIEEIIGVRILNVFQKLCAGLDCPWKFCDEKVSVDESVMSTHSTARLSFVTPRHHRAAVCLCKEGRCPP
Assay: pull-down

B1: GST-OLFM4 (OLFM4 without signal peptide) (domain or fragment)
chain: not shown
binding result: binds
